Results: patent US20250241939A1, “NUCLEIC ACID-BASED DELIVERY SYSTEMS AND USES THEREOF” (Kodikaz Therapeutic Solutions, Inc., priority 2022, published 2025)

Assays:
[1] = test system: MM cell lines (MM1s, OPM1, RPMI); experiment: Cell viability: sensitivity to bortezomib after culture with plasma and ctDNA; assay type: cell-based, human
Protocol: BR: Bortezomib resistant, BS: Bortezomib sensitive. Error bars indicate the standard deviation of triplicate experiments.
Cell viability: Cell viability assays were performed in 96 well, black, clear-bottom microplates. For MM cell line studies, 3×10^4 cells were cultured for 24 hours with media containing 10% human plasma of a bortezomib-resistant or-sensitive patient or a control non-cancer patient. Cells were then cultured for 24 hours with titrating concentrations of bortezomib (doses: 0, 5, 10, 15, 50 nM; Sigma). For PC cell lines viability studies, 1×10^4 cells were incubated for 24 hours with media containing plasma of a gemcitabine-resistant patient or non-cancer patient. Subsequently, titrating concentrations of gemcitabine (doses: 0, 10, 25, 50, 100, 200 μM; Sigma-Aldrich, MO) were added to the culture media and cells were then incubated for 96 hours. CellTiter-Blue Cell Viability Assay was used to evaluate cell viability according to the manufacturer's instructions (Promega). Cell viability was measured by a fluorescent protocol in an microplate reader. Experiments were performed in triplicate of 3 independent studies.

[2] = test system: MM1s (multiple myeloma) cell genome; experiment: ctDNA coculture with MM1s cells, whole genome sequencing: genomic insertion sites, transposons at insertion points and SNVs (multiple myeloma); assay type: cell-based, human; details: TABLE 7, multiple myeloma co-culture
Protocol: The integration of ctDNAs into the host cell genome was evaluated. ctDNA was extracted from patient plasma, cultured for 24 hours with cells of a matching cancer cell type or non-matching cancer cell type, and whole genome sequencing was performed. The cell lines used were MM1s (multiple myeloma, MM) and MIA (pancreatic cancer, PC).
Single nucleotide variants (SNVs) unique to the ctDNA that were found in the host cell genome under matching coculture conditions were identified.
The sequence data was used to reconstruct genomic contigs for each experimental condition by de novo assembly. […] Coculture contigs carrying a ctDNA insertion were identified using NucDiff analysis. BLAST alignment analysis further validated the gain of ctDNA fragments in coculture conditions and identified the transition points of ctDNA insertion (FIGS. 3A-3C). […] The remaining 20% inserted into a chromosomal location distinct from their site of origin.
Experiments were designed to identify the presence of transposons in ctDNA fragments. To map ctDNA genomic junctions more precisely, a PACBIO probe was ligated to multiple myeloma and pancreatic cancer ctDNA samples to label their 5′ and 3′ ends. Whole-genome sequencing of DNA from cells with ctDNA genomic integration was done using the Illumina platform. De novo assembly was performed on the sequencing output. ctDNA contigs containing PACBIO adaptor were then matched to those contigs containing inserted ctDNA sequences identified in the coculture experiments. Transposable element on ctDNA sequences at the insertion points (<100 nucleotides from transition point between cell and ctDNA) were detected and classified using RepeatMaster.
A search was conducted for transposons that preferentially target cells of matching tumor types. The lists of transposons identified at the ctDNA insertion point in matching and mismatched coculture conditions were compared (e.g., MM ctDNA with MM cells or PC cells). Transposons were selected that were uniquely or preferentially inserted in the matching conditions.
In multiple myeloma, AluSp, MER11, MER11C, AluJb, and L2a, among other subfamilies of retrotransposons were identified at the MM ctDNA insertion sites (FIG. 5B and TABLE 7).
Whole-genome sequencing and Whole exon sequencing: ctDNA was extracted from 10 MM and 10 PC patients. DNA from CD138 (+) cells and from cell lines used in in vitro experiments (MM1s and MIA) was extracted using Blood & Cell Culture DNA Mini Kit (Quiagen, MD). DNA from […] paraffin embedded pancreatic tumors was obtained using QIAamp DNA FFPE Tissue Kit Print (Qiagen, MD).
After extraction, ctDNA was ligated to the PACBIO adaptor ([…]) using the ABM DNA Library Prep Kit for Illumina Sequencing (Applied Biological Materials Inc. Canada). PACBio-labeled ctDNA and regular ctDNA were subjected to standard methods for library preparation and sequencing using Illumina and Agilent protocols, respectively. Applied Biological Materials Inc. prepared the libraries and performed whole-exon and -genome sequencing. The average target coverage was 50×.
Identification of transposable elements and its nucleotide variants: To determine the locations of transposable-like regions in contigs, sequences were analyzed and transposable elements (TEs) were identified and classified using RepeatMasker version 4.1.0 and the Dfam database (release 3.1) of repetitive DNA families was used as a reference for identifying repeats in ctDNA contig sequences that were part of qualifying structural events. For each repeat sequence identified by RepeatMasker, the overall frequency of the specific repeat (e.g., for AluSp or L1) and their parent class (e.g., SINE) was computed.
Once the TE elements were identified, hit repeats/TE sequences, unique contigs for all samples, and insertion sequence were aligned with MAFFT software version. […]

MM1s and U266 cells = experiment: Cell capture of several transposons in two MM cell lines at 4 hours, flow cytometry; assay type: cell-based, human; details: 4 hours of culture
Protocol: The variability of cell capture of several transposons was tested in two MM cell lines at 4 hours of culture.

[3] = test system: plasma cells (CD138+) and non-plasma cells (CD138−) of bone marrow; experiment: Cell targeting in bone marrow samples from patients with and without multiple myeloma, flow cytometry; assay type: cell-based, human
Protocol: FIG. 10 provides illustrative flow cytometry scatterplots displaying the cell capture of AluSp, MER11, and control transposon sequence in plasma cells (CD138+) and non-plasma cells (CD138−) derived from bone marrow of multiple myeloma patients.
Data for plasma cells (CD138+) and non-plasma cells (CD138−) are separately shown.
Cell targeting of the AluSp and MER11C sequences was tested in bone marrow samples derived from patients with and without multiple myeloma.

[4] = test system: MM cell lines MM1S, JK6L, and RPMI; experiment: Uptake of additional MM2 fragments, fluorescent microscopy; assay type: cell-based; details: Fluorescein 12 dCTP or 5′FAM labelling
Protocol: FIG. 21 provides microcopy images showing uptake of 5′ fluorescently labelled synthetic DNA fragments derived from a multiple myeloma ctDNA by MM cells (JK6L) or non-MM cells.
Additional fragments were generated to analyze further the sequence to identify a region that contributes to uptake by MM cells (e.g., a recognition sequence). The following sequences were generated with Fluorescein 12 dCTP or 5′FAM labelling:
The fluorescent DNA sequences were incubated with multiple cell lines (e.g., MM cell lines MM1S, JK6L, and RPMI, and non-MM cell lines HT1080, HCT116, and DU145) and uptake was evaluated by fluorescent microscopy. […] Specificity of uptake by MM cells was preserved as shown by a lack of uptake by HT1080 and HCT116 cells (FIG. 21).

[5] = test system: multiple myeloma cell line; experiment: Uptake of fluorescent MM2 fragments, fluorescent microscopy; assay type: cell-based; details: Fluorescein 12 dCTP labelled PCR products
Protocol: FIG. 19 provides fluorescence microcopy images showing uptake of fluorescently labelled synthetic DNA derived from a multiple myeloma ctDNA (MM2 (1-290), MM2 (89-290), MM2 (177-290), and MM2 (1-201), and MM2 (1-113)), or a control sequence.
Fluorescein 12 dCTP from Perkin Elmer was used to label the PCR products, which were purified after the reaction.
In an initial study, fragments were generated as follows:
The fluorescent DNA sequences were incubated with multiple a myeloma cell line and uptake was evaluated by fluorescent microscopy.
The study was repeated with 5′FAM-labelled primers, with similar results.

[6] = test system: HFF (fibroblast), DU145 (prostate cancer), and MCF10A (breast); experiment: Uptake of MM2 fragments in different cell types; assay type: cell-based
Description: (§1) FIG. 20 provides fluorescence microcopy images evaluating uptake of fluorescently labelled synthetic DNA derived from a multiple myeloma ctDNA (MM2 (1-290), MM2 (89-290), MM2 (177-290), and MM2 (1-201), and MM2 (1-113)) by multiple myeloma/B cell lines (MM1S and RPMI) and cell lines of other cell types (HFF—fibroblast, DU145—prostate cancer, MCF10A breast).
(§2) A follow-up experiment evaluated uptake of the fragments in different cell types, with counterstaining to identify nuclei (DAPI) and cytoplasm (Texas red-phalloidin).

[7] = test system: MM/B cell lines (MM1S and RPMI); experiment: Uptake of MM2 fragments in different cell types; assay type: cell-based; details: DAPI and Texas red-phalloidin counterstain
Description: as §1, §2

CC(C)C[C@H](NC(=O)[C@H](Cc1ccccc1)NC(=O)c1cnccn1)B(O)O [bortezomib]
sensitivity to bortezomib ([1]; MM1s and OPM1, ctDNA of BR patient added to non-cancer patient plasma): decreased the sensitivity | sensitivity to bortezomib ([1]; RPMI cells, ctDNA of BS patient added to control plasma): increased sensitivity | resistance to bortezomib ([1]; ctDNA of a BR patient added to plasma of a BR patient): further increased

B1: CY5-MER11C: synthesized MM retrotransposon MER11C, labelled with CY5 (nucleic acid, listed as Homo sapiens)
DNA: TATCGAAAATTCACCCCCGATATTCACGTAGGTTCTTTTCTATTTTCCCTAAGCGTCGGCAGGTTTGAGAAATAAAGGGACAGAGTACAAAAGAGAGAAATTTTAAAGCTGGGCGTCCGGGGGAGACATCACATGTTGGTAGGTTCCATGATGCCCCACAAGCCGTAAAAACCAGCAAGTTTTTATTAGTGATTTTCAAAAGGGGAGGGAGTGTACGAATAGGTGTGGGTCACAGAGATCACGTGCTTCACAAGGTAATAGAATATCACAAGGCAAATGGAGGCAGGGCGAGATCACAGGACCACAGGACCGGGGTGAAATTAAAATTGCTAATGAAGTTTTGGGCACCATTGTCATTGATAACATCTTATCAGGAGACAGGGTTTGAGAGACAACCGGTCTGACCAAAATTTATTAGGTGGGAATTTCCTCGTCCTAATAAGCCTGGGAGTGCTATGGGAGACTGGGGCTTATTTCATCCCGTAGAGGCAACCATAAAAGACAGGCCCAAGCGGCCATTTAGAGCCTCCCAGGACATTCTCTTTCTCAGGGTGTTCCTTGCTGAGAAAAAGAATTCAGATATTTCTCCATTTGCTTTTGAAAGAAGAGAAATATGGCTCTGTTCCCGGCTCACGGCGCAGATTTAAGGTTATCTCCTTTTCCCTGAACAATTGCTGTTATCCTGTTCTTTTTTCAAGGTGCCCAGATTTCATATTGTTCAAACACACATGCTTACAATTTGTGCAGTTAAGCAATATCACAGGGTCCTGAGGGACATACATCCTCCTCAGCTGACAGGATTAAGAGATTAAAGTAAAGACAGGCATAGGAAATCACAAGGGTATTGATTGGGGAAGTGATAAGTGTCCATGAAATCTTCACAATTTATGTTTAGAGATTGCAGTAAAGACAGGCATAAGAAATTATAAAAGTATTAATTTGGGGAACTAATAAATGTCCATGAAATCTTCACAATCCACGTTCTTCTGCCATGGCTTCAGCCGGTCCCTCCGTTCGGGGTCCCTGACTTCCCGCAACA
modifications: CY5 label
blast orientation ([2]; BLAST alignment orientation): Plus/Plus | blast chr ([2]; chromosome with the longest result for BLAST analysis of the full contig): chr14 | Distance from insertion ([2]; distance between insertion and the transposon (0 if they overlap)): 0 | Location relative to insertion ([2]; location of the transposon relative to the insertion on the contig): intersect | cell capture (MM1s and U266 cells): higher than that of the other transposons, the control sequence, and PC transposons | signal in plasma cells of MM patients vs non-MM CD138 (−) cells compartment ([3]; 14 hours): higher levels of signal | CY5 positive plasma cells ([3]; 14 hours of culture, vs control sequence or PC specific sequence): more CY5 positive plasma cells

B2: MM2 (88-168): fluorescently labelled fragment of MM2 (nucleic acid, listed as Homo sapiens)
DNA: CCAGGATGGAGTGCAAGGGATCTTGGCTCACCACAGCCTCCGCCTCTTGGGTTCAAGTGATTCTTCTGCCTCAGCCTCCC
modifications: DNA, all phosphodiester, methylation of C not given here; fluorescein label via fluorescein-12-dCTP or 5' FAM primer
uptake by MM cells [4]: sufficient for uptake

B3: MM2 (1-201): fluorescently labelled fragment of MM2 (1-290) (nucleic acid, listed as Homo sapiens)
DNA: ACCCGGCCTTGGACACGCCATTTTCAACTCCGTGGTGCGTTTTTTTTTTTTTTTTTTTTTTTTTGTAATGGAGTTTCGCTCTTGTTGCCCAGGATGGAGTGCAAGGGATCTTGGCTCACCACAGCCTCCGCCTCTTGGGTTCAAGTGATTCTTCTGCCTCAGCCTCCCAAGTAGCTGGGATTATAAGCACCCACCACCACG
modifications: fluorescent label
uptake [5]: observed | uptake [6]: not | uptake [7]: observed

B4: MM2 (1-113): fluorescently labelled fragment of MM2 (1-290) (nucleic acid, listed as Homo sapiens)
DNA: ACCCGGCCTTGGACACGCCATTTTCAACTCCGTGGTGCGTTTTTTTTTTTTTTTTTTTTTTTTTGTAATGGAGTTTCGCTCTTGTTGCCCAGGATGGAGTGCAAGGGATCTTG
modifications: DNA, all phosphodiester, methylation of C not given here; fluorescein label via fluorescein-12-dCTP or 5' FAM primer
uptake [5]: not | uptake [7]: not

B5: MM2 (177-290): fluorescently labelled fragment of MM2 (1-290) (nucleic acid, listed as Homo sapiens)
DNA: GGGATTATAAGCACCCACCACCACGCCCAGCTAATTTTGTATTTTTTAGAAGAGATGGAGTTTCTCCAGTTGGCCAGGATGGTCTGTATATCCTGACCTCATGATCTGCCCACC
modifications: DNA, all phosphodiester, methylation of C not given here; fluorescein label via fluorescein-12-dCTP or 5' FAM primer
uptake [5]: observed | uptake [6]: not | uptake [7]: observed
